Assay results reported in patent publication US20220195037A1 (AstraZeneca / MedImmune, published 2022).

Target: T1, Lectin-like oxidized low density lipoprotein receptor-1 (LOX1), expressed on cells (UniProt P78380 1-273, limits assumed)
T1 construct: whole, on cells; Also used as the target for the functional rows, where it is endogenous LOX1 on patient-derived pancreatic tumor cells, cancer cell lines and cardiomyocytes; also called LOX1-expressing cells; cells overexpressing LOX1
Assay: Western blot of lysates of human aortic endothelial cells, membrane probed with LX5140110 at 1 µg/ml and anti-human-Fc-HRP
Excerpt: Inhibition of LOX1 can reduce chemotherapy-induced cardiomyocyte damage. While the combination of chemotherapy and anti-CSC targeted therapies will likely be useful in the clinic, it is known that many chemotherapies have unintended harmful side effects in addition to anti-tumor activity. One such side effect is cardiac damage that can lead to cardiomyocyte death and heart failure. […] First, we examined the expression of LOX1 in response to doxorobucin treatment in human aortic endothelial cells (HAEC) and embryonic stem cell derived cardiomyocytes. Oxidized LDL (Ox-LDL) is a conventional ligand of LOX1 and was added as a control, since previous reports show an increase of LOX1 in response to Ox-LDL in rat cardiac muscle cells (Spallarossa et al., (2005)). Forty-thousand cells were plated in a 96-well plate and treated with media alone or media containing 5 μM doxorubicin for 24 hours. The cells were then scraped and lysed with 1× RIPA buffer containing protease inhibitors on ice for 1 h. Loading buffer was added to each sample followed by heating for 10 min at 90° C. Twelve microliters of sample was loaded per lane in a 4-12% bis-tris gradient gel. The gels were run for 40 min at 200V in MOPS buffer. The proteins were transferred onto a nitrocellulose membrane using iBlot. The membrane was blocked overnight with casein solution. […]

binding result: binds
B1: LX5140110 (antibody, V domains shown)
VH: QVQLVQSGAEVKKPGASVKVSCKVSGYTLTELSMHWVRQAPGKGLEWMGGFDPEDFKYHTHQKFQGRVTMTEDTSTDTAYMELSSLRSEDTAVYYCALVWGTQGKGVRGWDYYYGMDVWGQGTTVTVSS
VL: QSVVTQPPSVSGAPGQRVTISCTGSSSNIGAGYDVHWYQQLPGTAPKLLIYGNSNRPSGVPDRFSGSKSGTSASLAITGLQAEDEADYYCQSYDSSLSGWVFGGGTKLTVL
notes: Monoclonal antibody; It was detected with an anti-human-Fc antibody, and the controls were non-specific IgG1; also called LOX1-specific monoclonal antibody; LOX1 monoclonal antibody
